Values of other authors, collected in PMC3386632.

Target: integrin αIIbβ3 (Homo sapiens) (UniProt P08514)

In the case of disagregin (from UniProt P36235), the Kd is listed as 40 nM.
